Values quoted from earlier work in publication PMC4747809.

Columns and labels:
[1] = target: iC3b/C3dg TED (iC3b, C3dg) (Homo sapiens) (UniProt P01024)
[2] = target: iC3b/C3dg iC3b, C3dg (Homo sapiens) (UniProt P01024)
iC3b/C3dg iC3b, C3dg (Homo sapiens), sequence (P01024 955-1303): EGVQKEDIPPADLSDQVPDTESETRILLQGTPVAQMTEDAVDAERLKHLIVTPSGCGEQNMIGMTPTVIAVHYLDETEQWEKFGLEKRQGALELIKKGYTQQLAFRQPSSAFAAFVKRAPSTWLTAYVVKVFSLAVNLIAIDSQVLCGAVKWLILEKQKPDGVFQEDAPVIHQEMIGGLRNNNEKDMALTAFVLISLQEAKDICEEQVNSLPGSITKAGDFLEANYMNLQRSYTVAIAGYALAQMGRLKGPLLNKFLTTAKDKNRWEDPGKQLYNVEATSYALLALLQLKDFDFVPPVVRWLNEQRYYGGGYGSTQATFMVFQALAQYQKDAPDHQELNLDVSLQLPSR

Complement receptor 2 (CR2) domains 1-4, sequence (P20023 21-273): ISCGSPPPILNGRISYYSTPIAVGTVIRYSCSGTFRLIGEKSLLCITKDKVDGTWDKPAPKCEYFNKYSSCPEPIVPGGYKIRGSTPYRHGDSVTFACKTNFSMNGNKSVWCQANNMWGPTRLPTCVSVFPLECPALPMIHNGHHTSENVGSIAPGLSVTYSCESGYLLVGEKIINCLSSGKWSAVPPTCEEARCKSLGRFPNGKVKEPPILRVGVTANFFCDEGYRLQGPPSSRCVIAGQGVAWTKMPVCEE
Factor H (FH) domains 19-20, sequence (P08603 1107-1231): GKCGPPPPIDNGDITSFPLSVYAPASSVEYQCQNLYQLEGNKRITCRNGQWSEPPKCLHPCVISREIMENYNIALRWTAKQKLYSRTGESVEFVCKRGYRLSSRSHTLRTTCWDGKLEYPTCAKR
iC3b/C3dg TED (iC3b, C3dg) (Homo sapiens), sequence (P01024 955-1303): as the sequence (P01024 955-1303) above

| Substance | Kd [1] [µM] | Kd [2] [µM] |
| --- | --- | --- |
| Complement receptor 2 (CR2) domains 1-4 (from UniProt P20023) | 0.5 |  |
| Factor H (FH) domains 19-20 (from UniProt P08603) |  | 5 |
